“Also recorded” adds a separate entry of the source.
Key:
[1] = target: TLR3 (Homo sapiens, UniProt O15455); experiment: HEK293 hTLR3 reporter cell assay (TLR3/ISRE LUCPorter, luminometer); type: cell-based; details: putative ligands at increasing concentrations, 24 h (biglycan 5, 10, 20 μg/ml)
Procedure: All cells were cultivated under standard conditions (37° C., supplied with 5% CO2). Passaging of the cells was performed at 70-90% confluency, and cells were only used until passage 7 as described previously^6. Polyinosinic: polycytidylic acid (Poly(I:C); Invivogen, San Diego, CA) was used to stimulate cells at a concentration of either 20 μg/mL or 5 μg/ml, depending on the assay. For blockade of TLR3, the commercially available dsRNA/TLR3 inhibitor ((R)-2-(3-Chloro-6-fluorobenzo [b] thiophene-2-carboxamido)-3-phenyl-propanoic acid) was used (Merck, Darmstadt, Germany) at a concentration of 1 μg/ml as described previously^1,7. LY294002 (Invivogen, San Diego, CA), a PI3K inhibitor, was used at a concentration of 10 μM. For blockade of IFNAR1, a specific blocking antibody (Invitrogen, Carlsbad, CA) was used at a concentration of 4 μg/ml. A stable HEK (human embryonic kidney) reporter cell line (TLR3/ISRE LUCPorter; Imgenex, USA) was purchased for luminometer assay experiments. Cells were cultivated according to the manufacturer's protocol in DMEM with 4.5 g/L glucose (Lonza, Switzerland), 10% FCS (Sigma, St. Louis, MO), penicillin/streptomycin, and 4 mM L-glutamine and […] puromycin (Gibco, USA) as selection agent. Reporter experiments were performed as described previously^8. […]

[2] = test system: TLR3; experiment: TLR3 expression in valvular interstitial cells (immunoblot / RT-qPCR); type: cell-based, human; details: immunoblot; 20 μg/ml, 24 h or 48 h (FIG. 7A)
Procedure: Valvular interstitial cells from patients undergoing aortic valve replacement or cardiac transplantation were isolated via collagen digestion as described previously^6. Valves were rinsed in EBSS and subsequently subjected to collagenase digestion (Sigma, St. Louis, MO; 2.5 mg/mL in M199) for 30 minutes at 37° C. Thereafter, tissue samples were vortexed and supernatant containing endothelial cells was removed. Again, collagenase was added to the remaining valve tissue (1 mg/mL) for 3 h at 37° C. For mechanical disintegration of the tissue, vortexing and repeated aspiration via a pipette was performed. The supernatant was transferred into a new tube and subjected to centrifugation (300 g for 8 minutes at 4° C.). Subsequently, cells were resuspended in M199 medium containing 10% fetal calve serum, penicillin, streptomycin, L-Glutamine and amphotericin B (2.5 mg/L).
All cells were cultivated under standard conditions (37° C., supplied with 5% CO2). Passaging of the cells was performed at 70-90% confluency, and cells were only used until passage 7 as described previously^6. […]
RT-PCR was performed as described previously^17. […] The result for the relative gene expression was calculated by the 2-DDCt method. Mean Ct values were calculated from double determinations and samples were considered negative if the Ct values exceeded 4017. […]

[3] = test system: TLR3 and IFN-β; experiment: RT-PCR of human dermal fibroblasts (wild type, empty vector control, Tlr3−/− CRISPR); type: cell-based; details: 5 μg/ml, 6 h
From the text: (§1) Human dermal fibroblasts WT and Tlr3^−/− were kindly provided by the Jean-Laurent Casanova group and cultivated in DMEM with 4.5 g/L glucose (Lonza, Basel, Switzerland), 10% FCS (Sigma, St. Louis, MO), penicillin, streptomycin and L-Glutamine. Human dermal fibroblasts CTR cells were provided by the Villunger group and cultivated in DMEM with 4.5 g/L glucose (Lonza, Basel, Switzerland), 10% FCS (Sigma, St. Louis, MO), penicillin, streptomycin and L-Glutamine.
(§2) All cells were cultivated under standard conditions (37° C., supplied with 5% CO2). Passaging of the cells was performed at 70-90% confluency, and cells were only used until passage 7 as described previously^6. Polyinosinic: polycytidylic acid (Poly(I:C); Invivogen, San Diego, CA) was used to stimulate cells at a concentration of either 20 μg/mL or 5 μg/ml, depending on the assay. For blockade of TLR3, the commercially available dsRNA/TLR3 inhibitor ((R)-2-(3-Chloro-6-fluorobenzo [b] thiophene-2-carboxamido)-3-phenyl-propanoic acid) was used (Merck, Darmstadt, Germany) at a concentration of 1 μg/ml as described previously^1,7. LY294002 (Invivogen, San Diego, CA), a PI3K inhibitor, was used at a concentration of 10 μM. For blockade of IFNAR1, a specific blocking antibody (Invitrogen, Carlsbad, CA) was used at a concentration of 4 μg/ml. A stable HEK (human embryonic kidney) reporter cell line (TLR3/ISRE LUCPorter; Imgenex, USA) was purchased for luminometer assay experiments. Cells were cultivated according to the manufacturer's protocol in DMEM with 4.5 g/L glucose (Lonza, Switzerland), 10% FCS (Sigma, St. Louis, MO), penicillin/streptomycin, and 4 mM L-glutamine and […] puromycin (Gibco, USA) as selection agent. Reporter experiments were performed as described previously^8. For the protein expression SF21 cells were purchased at ThermoFisher (#11497013) and cultivated in Gibco™ Sf-900™ SFM supplemented with penicillin, streptomycin and L-Glutamine. In vitro stretch was applied using a Flexcell bioreactor (Flexcell International Corporation, Burlington, NC) applying 15% cyclic strain as described previously^9.
RT-PCR was performed as described previously^17. Total RNA was extracted from homogenized tissue or cell lysates using the Total RNA Miniprep Kit (New England BioLabs, Frankfurt, Germany) according to the manufacturer's instructions. We performed the PCR reaction in a final volume of 12.5 μL containing 2.5 μL of cDNA, 6.25 μL of Master Mix, 1 μL of fluorogenic hybridization probe, 10 μM of primer and 2.75 μL of distilled water. […] The result for the relative gene expression was calculated by the 2-DDCt method. Mean Ct values were calculated from double determinations and samples were considered negative if the Ct values exceeded 4017. […]

[4] = test system: TLR3-RUNX2 pathway; experiment: Immunoblot of human dermal fibroblasts for the TLR3-RUNX2 pathway; type: cell-based; details: wild type and empty vector control cells; 5 μg/ml, 6 h
From the text: as §1, §2
Protein from tissue or cell lysates was extracted using a Radioimmunoprecipitation Assay Lysis Puffer (150 mM NaCl, 1% NP-40, 0.5% Sodium Deoxycholate, 0.1% SDS and 50 mM Tris (pH 8,0)). For the extraction of nuclear or cytosolic proteins the NE-PER™ Nuclear and Cytoplasmic Extraction Reagents Kit (ThermoScientific, #78835) was used.
Protein was thereafter separated on SDS-polyacrylamide gels of different percentages and transferred to nitrocellulose membranes as described previously^18. After blocking with either 5% BSA in TBS 0.1% Tween, 5% milk in TBS 0.1% Tween or StartingBlock™ (TBS) Blocking buffer (ThermoScientific, #37542) membranes were incubated with primary antibodies listed in Table 2.

[5] = target: T1, human TLR3 ectodomain (huTLR3-ECD) (Homo sapiens, UniProt O15455); experiment: In vitro binding by size exclusion chromatography and immunoblot; details: chondroitinase ABC digested BGN incubated with TLR3 ECD
T1 construct: The human TLR3-ECD (27-700) was modified with an N-terminal gb67 leader and a C-terminal 6× poly histidine tag; gb67 (gp67) secretion leader (N); 6xHis (C); made in house; host or cells: Sf21 insect cells (baculovirus, pFastBac1, Bac-to-Bac)

- binding to huTLR3-ECD by size-exclusion chromatography followed by immunoblotting [5]: co-elution
- binding to huTLR3-ECD by size-exclusion chromatography followed by immunoblotting ([5]; listed as huBGN): weak binding interaction
B1: BGN: proteoglycan biglycan (BGN), a structural protein of the extracellular matrix (ECM) (protein)
chain: DEEASGAETTSGIPDLDSLPPTYSAMCPFGCHCHLRVVQCSDLGLKAVPKEISPDTTLLDLQNNDISELRKDDFKGLQHLYALVLVNNKISKIHEKAFSPLRKLQKLYISKNHLVEIPPNLPSSLVELRIHDNRIRKVPKGVFSGLRNMNCIEMGGNPLENSGFEPGAFDGLKLNYLRISEAKLTGIPKDLPETLNELHLDHNKIQAIELEDLLRYSKLYRLGLGHNQIRMIENGSLSFLPTLRELHLDNNKLSRVPAGLPDLKLLQVVYLHTNNITKVGVNDFCPVGFGVKRAYYNGISLFNNPVPYWEVQPATFRCVTDRLAIQFGNYKK
- activation of TLR3 reporter cells [1]: activated TLR3 reporter cells in a dose-dependent fashion
- TLR3 expression in VICs [2]: induces TLR3 expression in a dose-dependent manner; also recorded: induced TLR3 expression in VICs
- transcription of TLR3 and IFN-β ([3]; Tlr3−/− fibroblasts): no response
- transcription of TLR3 and IFN-β ([3]; wild type and empty vector control fibroblasts): induced transcription of TLR3 and IFN-β
- IFNAR1 level [4]: upregulation of IFNAR1
- levels of osteoblastic transcription factor RUNX2 [4]: increased levels
- phosphorylation of IRF3 [4]: phosphorylation of IRF3

— patent publication US20250011869A1, “TLR3 INHIBITORS FOR USE IN THE TREATMENT OF DISEASES ASSOCIATED WITH CARDIOVASCULAR CALCIFICATION” (priority 2021, published 2025)
